{
  "source": "patent US20240425607A1",
  "about": "“IL-18BP ANTAGONIST ANTIBODIES AND THEIR USE IN MONOTHERAPY AND COMBINATION THERAPY IN THE TREATMENT OF CANCER” (Compugen Ltd., priority 2023, published 2024)",
  "key": {"[1]": {"experiment": "Fab Tm by dynamic scanning fluorimetry (DSF)", "type": "physicochemical", "conditions": "optimized antibodies", "description": "10 μL of 20× Sypro Orange is added to 20 μL of 0.2-1 mg/mL mAb or Fab solution. A RT-PCR instrument (BioRad CFX96 RT PCR) is used to ramp the sample plate temperature from 40 to 95° C. at 0.5° C. increment, with 2 min equilibrate at each temperature. The negative of first derivative for the raw data is used to extract Tm."}, "SEC-HPLC % monomer": {"experiment": "SEC-HPLC % monomer", "type": "physicochemical", "conditions": "optimized antibodies", "description": "A TSKgel SuperSW mAb HTP column (22855) was used for fast SEC analysis of mammalian produced mAbs at 0.4 mL/min with a cycle time of 6 min/run. 200 mM Sodium Phosphate and 250 mM Sodium Chloride was used as the mobile phase."}},
  "data": [
    {"molecule": "ADI-71710: anti-IL18-BP antibody, sequences in FIG. 2I; 66650 lineage (antibody, V domains shown) VH: QVQLVQSGAEVKKPGASVKVSCKASGYTFGIYAMHWVRQAPGQRLEWMGWIHAGTGVTKYSQKFQGRVTITRDTSASTAYMELSSLRSEDTAVYYCARGLGEVGPTGTSWFDPWGQGTLVTVSS VL: DIQMTQSPSTLSASVGDRVTITCRASQSISSWLAWYQQKPGKAPKLLIYEASSLESGVPSRFSGSGSGTEFTLTISSLQPDDFATYYCQQYRYSPFTFGGGTKVEIK", "values": [
      {"measurement": "Fab Tm (DSF, ° C.)", "setting": "[1]", "value": 71.5, "unit": "°C"},
      {"measurement": "SEC-HPLC, % monomer", "setting": "SEC-HPLC % monomer", "value": 97.9, "unit": "%"}
    ]},
    {"molecule": "ADI-71701: anti-IL18-BP antibody, sequences in FIG. 2E; 66650 lineage (antibody, V domains shown) VH: QVQLVQSGAEVKKPGASVKVSCKASGYTFNSYAMHWVRQAPGQRLEWMGWIHAGTGNTKYSQKFQGRVTITRDTSASTAYMELSSLRSEDTAVYYCARGLGEVGPTGTSWFDPWGQGTLVTVSS VL: DIQMTQSPPTLSASVGDRVTITCRASQSISSWLAWYQQKPGKAPKLLIYEASSLESGVPSRFSGSGSGTEFTLTISSLQPDDFATYYCQQYRVFPFTFGGGTKVEIK", "values": [
      {"measurement": "Fab Tm (DSF, ° C.)", "setting": "[1]", "value": 71.5, "unit": "°C"},
      {"measurement": "SEC-HPLC, % monomer", "setting": "SEC-HPLC % monomer", "value": 98.6, "unit": "%"}
    ]},
    {"molecule": "ADI-71707: anti-IL18-BP antibody, sequences in FIG. 2M; 66650 lineage (antibody, V domains shown) VH: QVQLVQSGAEVKKPGASVKVSCKASGYTFRHYAMHWVRQAPGQRLEWMGWIHAGTGNTLYSQKFQGRVTITRDTSASTAYMELSSLRSEDTAVYYCARGLGEVGPTGTSWFDPWGQGTLVTVSS VL: DIQMTQSPSTLSASVGDRVTITCRASQSISSWLAWYQQKPGKAPKLLIYEASSLESGVPSRFSGSGSGTEFTLTISSLQPDDFATYYCQQYRLGPFTFGGGTKVEIK", "values": [
      {"measurement": "Fab Tm (DSF, ° C.)", "setting": "[1]", "value": 71.0, "unit": "°C"},
      {"measurement": "SEC-HPLC, % monomer", "setting": "SEC-HPLC % monomer", "value": 98.8, "unit": "%"}
    ]},
    {"molecule": "ADI-71719: anti-IL18-BP antibody, sequences in FIG. 2B; 66670 lineage (antibody, V domains shown) VH: QVQLVQSGAEVKKPGSSVKVSCKASGGTFNSYVISWVRQAPGQGLEWMGGIIPGAGTANYAQKFQGRVTITADESTSTAYMELSSLRSEDTAVYYCARGRHSHETWGQGTLVTVSS VL: DIQMTQSPSSVSASVGDRVTITCRASQGISSWLAWYQQKPGKAPKLLIYAASSLQSGVPSRFSGSGSGTDFTLTISSLQPEDFATYYCQQVYSLPWTFGGGTKVEIK", "values": [
      {"measurement": "Fab Tm (DSF, ° C.)", "setting": "[1]", "value": 72.5, "unit": "°C"},
      {"measurement": "SEC-HPLC, % monomer", "setting": "SEC-HPLC % monomer", "value": 94.5, "unit": "%"}
    ]},
    {"molecule": "ADI-71742: anti-IL18-BP antibody, sequences in FIG. 2Q (antibody, V domains shown) VH: QLQLQESSPGLVKPSETLSLTCTVSGGSISSPDYPWGWIRQPPGKGLEWIGSIFYSGNTYYNPSLKSRVTISVDTSKNQFSLKLSSVTAADTAVYYCARGPHRQVFDYWGQGTLVTVSS VL: DIQMTQSPSSVSASVGDRVTITCRASQGISSWLAWYQQKPGKAPKLLIYAASSLQSGVPSRFSGSGSGTDFTLTISSLQPEDFATYYCQQGWSFPYTFGGGTKVEIK", "values": [
      {"measurement": "Fab Tm (DSF, ° C.)", "setting": "[1]", "value": 74.0, "unit": "°C"},
      {"measurement": "SEC-HPLC, % monomer", "setting": "SEC-HPLC % monomer", "value": 91.3, "unit": "%"}
    ]},
    {"molecule": "ADI-71736: anti-IL18-BP antibody, sequences in FIG. 2L; 66716 lineage (antibody, V domains shown) VH: QLQLQESGPGLVKPSETLSLTCTVSGGSISSSEYGWGWIRQPPGKGLEWIGSIVNSGSTYYNPSLKSRVTISVDTSKNQFSLKLSSVTAADTAVYYCARGPHRQVFDYWGQGTLVTVSS VL: DIQMTQSPSSVSASVGDRVTITCRASQGISSWLAWYQQKPGKAPKHLIYAASSLQSGVPSRFSGSGSGTDFTLTISSLQPEDFATYYCQQGFSFPYTFGGGTKVEIK", "values": [
      {"measurement": "Fab Tm (DSF, ° C.)", "setting": "[1]", "value": 73.5, "unit": "°C"},
      {"measurement": "SEC-HPLC, % monomer", "setting": "SEC-HPLC % monomer", "value": 79.2, "unit": "%"}
    ]},
    {"molecule": "ADI-71728: anti-IL18-BP antibody, sequences in FIG. 2O; 66670 lineage (antibody, V domains shown) VH: QVQLVQSGAEVKKPGSSVKVSCKASGGTFSEYPISWVRQAPGQGLEWMGGIIPYSGTAVYAQKFQGRVTITADESTSTAYMELSSLRSEDTAVYYCARGRHGHETWGQGTLVTVSS VL: DIQMTQSPSSVSASVGDRVTITCRASQGISSWLAWYQQKPGKAPKLLIYAASSLQSGVPSRFSGSGSGTDFTLTISSLQPEDFATYYCQQVYSIPWTFGGGTKVEIK", "values": [
      {"measurement": "Fab Tm (DSF, ° C.)", "setting": "[1]", "value": 73.0, "unit": "°C"},
      {"measurement": "SEC-HPLC, % monomer", "setting": "SEC-HPLC % monomer", "value": 95.0, "unit": "%"}
    ]},
    {"molecule": "ADI-71753: anti-IL18-BP antibody, sequences in FIG. 2S (antibody, V domains shown) VH: QLQLQESGPGLVKPSETLSLTCTVSGGSIFSSDYYWSWIRQPPGKGLEWIGVIAYSGSTYYNPSLKSRVTISVDTSKNQFSLKLSSATAADTAVYYCARGPFRQVFDYWGQGTLVTVSS VL: DIQMTQSPSSVSASVGDRVTITCRASQGISSWLAWYQQKPGKAPKLLIYAASSLQSGVPSRFSGSGSGTDFTLTISSLQPEDFATYYCQQGSSFPYTFGGGTKVEIK", "values": [
      {"measurement": "Fab Tm (DSF, ° C.)", "setting": "[1]", "value": 74.5, "unit": "°C"},
      {"measurement": "SEC-HPLC, % monomer", "setting": "SEC-HPLC % monomer", "value": 96.9, "unit": "%"}
    ]},
    {"molecule": "ADI-71663: anti-IL18-BP antibody, sequences in FIG. 2F; 66692 lineage (antibody, V domains shown) VH: EVQLLESGGGLVQPGGSLRLSCAASGFTFGNTAMSWVRQAPGKGLEWVSAISANAGSTYYADSVKGRFTISRDNSKNTLYLQMNSLRAEDTAVYYCAKGPDRQVFDYWGQGTLVTVSS VL: DIQMTQSPSSVSASVGDRVTITCRASQGISSWLAWYQQKPGKAPKLLIYAASSLQSGVPSRFSGSGSGTDFTLTISSLQPEDFATYYCQHALFFPYTFGGGTKVEIK", "values": [
      {"measurement": "Fab Tm (DSF, ° C.)", "setting": "[1]", "value": 68.0, "unit": "°C"},
      {"measurement": "SEC-HPLC, % monomer", "setting": "SEC-HPLC % monomer", "value": 93.9, "unit": "%"}
    ]},
    {"molecule": "ADI-71720: anti-IL18-BP antibody, sequences in FIG. 2C; 66670 lineage (antibody, V domains shown) VH: QVQLVQSGAEVKKPGSSVKVSCKASGGTFSEYVISWVRQAPGQGLEWMGGIIPGAGTANYAQKFQGRVTITADESTSTAYMELSSLRSEDTAVYYCARGRHSHETWGQGTLVTVSS VL: DIQMTQSPSSVSASVGDRVTITCRASQGISSWLAWYQQKPGKAPKLLIYAASSLQSGVPSRFSGSGSGTDFTLTIGSLQPEDFATYYCQQVYSLPWTFGGGTKVEIK", "values": [
      {"measurement": "Fab Tm (DSF, ° C.)", "setting": "[1]", "value": 72.5, "unit": "°C"},
      {"measurement": "SEC-HPLC, % monomer", "setting": "SEC-HPLC % monomer", "value": 98.6, "unit": "%"}
    ]},
    {"molecule": "ADI-71755: anti-IL18-BP antibody, sequences in FIG. 2T (antibody, V domains shown) VH: QLQLQESGPGLVKPSETLSLTCTVSGGSISSPDYPWGWIRQPPGKGLEWIGSIFYSGNTYYNPSLKSRVTISVDTSKNQFSLKLSSVTAADTAVYYCARGPFRQVFDYWGQGTLVTVSS VL: DIQMTQSPSSVSASVGDRVTITCRASQGISSWLAWYQQKPGKAPKLLIYAASSLQSGVPSRFSGSGSGTDFTLTISSLQPEDFATYYCQQGWSFPYTFGGGTKVEIK", "values": [
      {"measurement": "Fab Tm (DSF, ° C.)", "setting": "[1]", "value": 74.5, "unit": "°C"},
      {"measurement": "SEC-HPLC, % monomer", "setting": "SEC-HPLC % monomer", "value": 92.9, "unit": "%"}
    ]},
    {"molecule": "ADI-71741: anti-IL18-BP antibody, sequences in FIG. 2P (antibody, V domains shown) VH: QLQLQESGPGLVKPSETLSLTCTVSGGSISSSDYPWGWIRQPPGKGLEWIGSIYYSGSTYYNPSLKSRVTISVDTSKNQFSLKLSSVTAADTAVYYCARGPYRQVFDYWGQGTLVTVSS VL: DIQMTQSPSSVSASVGDRVTITCRASQGISSWLAWYQQKPGKAPKLLIYAASSLQSGVPSRFSGSGSGTDFTLTISSLQPEDFATYYCQQGNSFPYTFGGGTKVEIK", "values": [
      {"measurement": "Fab Tm (DSF, ° C.)", "setting": "[1]", "value": 73.5, "unit": "°C"},
      {"measurement": "SEC-HPLC, % monomer", "setting": "SEC-HPLC % monomer", "value": 99.4, "unit": "%"}
    ]},
    {"molecule": "ADI-71744: anti-IL18-BP antibody, sequences in FIG. 2R (antibody, V domains shown) VH: QLQLQESGPGLVKPSETLSLTCTVSGGSISSSEYGWGWIRQPPGKGLEWIGSIVNSGSTYYNPSLKSRVTISVDTSKNQFSLKLSSVTAADTAVYYCARGPYRQVFDYWGQGTLVTVSS VL: DIQMTQSPSSVSASVGDRVTITCRASQGISSWLAWYQQKPGKAPKLLIYAASSLQSGVPSRFSGSGSGTDFTLTISSLQPEDFATYYCQQGWSFPYTFGGGTKVEIK", "values": [
      {"measurement": "Fab Tm (DSF, ° C.)", "setting": "[1]", "value": 74.5, "unit": "°C"},
      {"measurement": "SEC-HPLC, % monomer", "setting": "SEC-HPLC % monomer", "value": 88.1, "unit": "%"}
    ]}
  ]
}
